What was measured:
UvrA [1] = experiment: SPR (BIAcore), His-tagged β domain immobilised on Ni-NTA sensor chip, UvrA in solution, without ATP
UvrA [2] = experiment: SPR (BIAcore), His-tagged β domain immobilised on Ni-NTA sensor chip, UvrA in solution, with ATP
[3] = target: TRCF-β (β domain of Thermus thermophilus HB8 transcription-repair coupling factor, His-tagged) (Thermus thermophilus HB8); experiment: SPR (BIAcore), His-tagged β domain immobilised on Ni-NTA sensor chip, UvrA injected, with ATP (+ ATP)
[4] = target: TRCF-β (β domain of Thermus thermophilus HB8 transcription-repair coupling factor, His-tagged) (Thermus thermophilus HB8); experiment: SPR (BIAcore), His-tagged β domain immobilised on Ni-NTA sensor chip, UvrA injected, without ATP (- ATP)

UvrA (enzyme), sequence (Q56242 whole entry): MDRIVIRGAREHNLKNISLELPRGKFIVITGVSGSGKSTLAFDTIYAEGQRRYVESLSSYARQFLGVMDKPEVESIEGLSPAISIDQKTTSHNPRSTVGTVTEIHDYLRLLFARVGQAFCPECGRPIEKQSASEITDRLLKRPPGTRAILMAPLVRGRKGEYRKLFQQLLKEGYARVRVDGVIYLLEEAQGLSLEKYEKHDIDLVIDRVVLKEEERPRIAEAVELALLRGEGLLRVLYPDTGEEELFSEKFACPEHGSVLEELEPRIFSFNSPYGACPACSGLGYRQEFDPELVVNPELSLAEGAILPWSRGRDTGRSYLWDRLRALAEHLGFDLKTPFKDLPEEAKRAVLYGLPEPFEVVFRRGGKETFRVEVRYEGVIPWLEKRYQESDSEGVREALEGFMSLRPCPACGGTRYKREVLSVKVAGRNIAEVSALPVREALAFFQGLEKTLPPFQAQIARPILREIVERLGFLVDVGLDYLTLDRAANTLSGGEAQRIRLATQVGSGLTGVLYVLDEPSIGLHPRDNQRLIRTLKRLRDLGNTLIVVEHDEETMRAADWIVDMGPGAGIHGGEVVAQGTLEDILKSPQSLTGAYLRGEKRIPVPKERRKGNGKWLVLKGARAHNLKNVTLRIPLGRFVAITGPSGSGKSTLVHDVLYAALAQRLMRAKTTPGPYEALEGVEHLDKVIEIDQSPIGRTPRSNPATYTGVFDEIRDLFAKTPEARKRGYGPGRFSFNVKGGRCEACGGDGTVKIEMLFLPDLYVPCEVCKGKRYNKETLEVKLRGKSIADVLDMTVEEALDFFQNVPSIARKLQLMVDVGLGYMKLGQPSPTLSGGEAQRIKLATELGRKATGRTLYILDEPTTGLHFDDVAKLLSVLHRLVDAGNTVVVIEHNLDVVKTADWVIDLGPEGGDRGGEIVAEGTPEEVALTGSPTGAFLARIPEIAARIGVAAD
UvrA, sequence (Q56242 whole entry): as above

Kd (UvrA [1]) | Kd (UvrA [2]) | koff [3] | kon [3] | koff [4] | kon [4] | Substance
1.3 µM | 0.5 µM | – | – | – | – | TRCF-β (β domain of Thermus thermophilus HB8 transcription-repair coupling factor, His-tagged) (enzyme)
– | – | 0.07 s⁻¹ | 150000 M⁻¹ s⁻¹ | 0.13 s⁻¹ | 100000 M⁻¹ s⁻¹ | UvrA (enzyme)

Reference: US20030008291A1
